# Measured values from patent publication US20250276018A1 (AFFYIMMUNE THERAPEUTICS, published 2025).
# Like-named read-outs stand apart in the source and are kept apart here.
# Legend:
# [1] = molecular target: T1, AF647 labeled c-met protein (UniProt P08581 25-932, limits assumed, labeled with AlexaFluor 647 (AF647)); experiment: flow cytometry, EC50 relative to parental Affy6 CAR-T cells (Round 2)
# T1 construct: Soluble labeled c-met protein titrated on CAR-T cells
# Protocol: (§1) Binding of labeled c-MET to CAR-T cells expressing the affinity tuned c-MET scFvs was evaluated by transducing lentivirus anti-c-MET CAR particles into human T cells to form c-MET CAR-T cells incubated with AF647-labeled c-MET. […] Following a 48 hr. incubation at 37° C., the culture media was brought up to […] per well and incubated at 37° C. for 10 days.
# (§2) Cells were stained on ice for 30 mins and then washed with PBS. After washing, residually bound protein on CAR T cells were measured on a flow cytometer (Beckman, CytoFLEX®). The resulting binding data was fit using a non-linear regression analysis on GraphPad Prism to calculate half effective dose concentration (EC₅₀) values. The results of this analysis are shown in FIGS. 2-5 and Tables 2-5 below.
# [2] = molecular target: T2, c-MET on human target cells (human, UniProt P08581 25-1390); experiment: cell-based or functional assay
# [3] = molecular target: T2, c-MET on human target cells; experiment: cell-based or functional assay; remark: listed apart in the source
# [4] = molecular target: T2, c-MET on human target cells; experiment: cell-based or functional assay; remark: listed apart in the source
# [5] = molecular target: T1, AF647 labeled c-met protein; experiment: flow cytometry, AF647-labeled c-met protein titrated on CAR-T cells (Round 2)
# Protocol: as §1, §2
# [6] = molecular target: T2, c-MET on human target cells; experiment: cell-based or functional assay; remark: listed apart in the source
# [7] = molecular target: T2, c-MET on human target cells; experiment: cell-based or functional assay; remark: listed apart in the source
# [8] = molecular target: T2, c-MET on human target cells; experiment: cell-based or functional assay; remark: listed apart in the source
# [9] = molecular target: T2, c-MET on human target cells; experiment: cell-based or functional assay; remark: listed apart in the source
# [10] = molecular target: T2, c-MET on human target cells; experiment: cell-based or functional assay; remark: listed apart in the source
# [11] = molecular target: T2, c-MET on human target cells; experiment: cell-based or functional assay; remark: listed apart in the source
# [12] = molecular target: T2, c-MET on human target cells; experiment: cell-based or functional assay; remark: listed apart in the source
# [13] = molecular target: T2, c-MET on human target cells; experiment: cell-based or functional assay; remark: listed apart in the source
# [14] = molecular target: T2, c-MET on human target cells; experiment: cell-based or functional assay; remark: listed apart in the source
# [15] = molecular target: T1, AF647 labeled c-met protein; experiment: flow cytometry, EC50 relative to parental Affy7 CAR-T cells (Round 2)
# Protocol: as §1, §2
# T1 sequence (P08581 25-932 limits assumed): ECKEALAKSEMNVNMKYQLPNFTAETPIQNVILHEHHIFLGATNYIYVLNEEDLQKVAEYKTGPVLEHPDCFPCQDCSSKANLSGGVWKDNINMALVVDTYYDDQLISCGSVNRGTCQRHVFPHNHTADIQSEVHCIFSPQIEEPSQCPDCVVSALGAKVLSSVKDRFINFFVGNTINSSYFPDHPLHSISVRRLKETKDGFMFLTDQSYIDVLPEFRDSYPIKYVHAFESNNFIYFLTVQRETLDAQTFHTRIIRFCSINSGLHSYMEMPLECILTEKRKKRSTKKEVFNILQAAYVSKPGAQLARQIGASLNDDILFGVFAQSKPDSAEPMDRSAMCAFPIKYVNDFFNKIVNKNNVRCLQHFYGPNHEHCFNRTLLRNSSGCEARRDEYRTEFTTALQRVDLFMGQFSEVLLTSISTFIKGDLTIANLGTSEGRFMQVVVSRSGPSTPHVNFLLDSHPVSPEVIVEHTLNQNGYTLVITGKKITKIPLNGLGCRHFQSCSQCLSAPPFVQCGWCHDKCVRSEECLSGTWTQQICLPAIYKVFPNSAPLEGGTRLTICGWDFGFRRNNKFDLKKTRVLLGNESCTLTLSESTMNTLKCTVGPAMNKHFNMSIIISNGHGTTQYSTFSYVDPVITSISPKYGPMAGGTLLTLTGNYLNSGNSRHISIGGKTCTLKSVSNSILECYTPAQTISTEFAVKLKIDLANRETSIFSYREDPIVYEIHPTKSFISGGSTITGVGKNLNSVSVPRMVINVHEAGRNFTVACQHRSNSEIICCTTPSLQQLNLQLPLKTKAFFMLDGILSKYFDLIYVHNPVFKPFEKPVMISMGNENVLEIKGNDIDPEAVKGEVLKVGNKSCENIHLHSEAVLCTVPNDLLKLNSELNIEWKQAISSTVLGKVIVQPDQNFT
# T2 sequence (P08581 25-1390): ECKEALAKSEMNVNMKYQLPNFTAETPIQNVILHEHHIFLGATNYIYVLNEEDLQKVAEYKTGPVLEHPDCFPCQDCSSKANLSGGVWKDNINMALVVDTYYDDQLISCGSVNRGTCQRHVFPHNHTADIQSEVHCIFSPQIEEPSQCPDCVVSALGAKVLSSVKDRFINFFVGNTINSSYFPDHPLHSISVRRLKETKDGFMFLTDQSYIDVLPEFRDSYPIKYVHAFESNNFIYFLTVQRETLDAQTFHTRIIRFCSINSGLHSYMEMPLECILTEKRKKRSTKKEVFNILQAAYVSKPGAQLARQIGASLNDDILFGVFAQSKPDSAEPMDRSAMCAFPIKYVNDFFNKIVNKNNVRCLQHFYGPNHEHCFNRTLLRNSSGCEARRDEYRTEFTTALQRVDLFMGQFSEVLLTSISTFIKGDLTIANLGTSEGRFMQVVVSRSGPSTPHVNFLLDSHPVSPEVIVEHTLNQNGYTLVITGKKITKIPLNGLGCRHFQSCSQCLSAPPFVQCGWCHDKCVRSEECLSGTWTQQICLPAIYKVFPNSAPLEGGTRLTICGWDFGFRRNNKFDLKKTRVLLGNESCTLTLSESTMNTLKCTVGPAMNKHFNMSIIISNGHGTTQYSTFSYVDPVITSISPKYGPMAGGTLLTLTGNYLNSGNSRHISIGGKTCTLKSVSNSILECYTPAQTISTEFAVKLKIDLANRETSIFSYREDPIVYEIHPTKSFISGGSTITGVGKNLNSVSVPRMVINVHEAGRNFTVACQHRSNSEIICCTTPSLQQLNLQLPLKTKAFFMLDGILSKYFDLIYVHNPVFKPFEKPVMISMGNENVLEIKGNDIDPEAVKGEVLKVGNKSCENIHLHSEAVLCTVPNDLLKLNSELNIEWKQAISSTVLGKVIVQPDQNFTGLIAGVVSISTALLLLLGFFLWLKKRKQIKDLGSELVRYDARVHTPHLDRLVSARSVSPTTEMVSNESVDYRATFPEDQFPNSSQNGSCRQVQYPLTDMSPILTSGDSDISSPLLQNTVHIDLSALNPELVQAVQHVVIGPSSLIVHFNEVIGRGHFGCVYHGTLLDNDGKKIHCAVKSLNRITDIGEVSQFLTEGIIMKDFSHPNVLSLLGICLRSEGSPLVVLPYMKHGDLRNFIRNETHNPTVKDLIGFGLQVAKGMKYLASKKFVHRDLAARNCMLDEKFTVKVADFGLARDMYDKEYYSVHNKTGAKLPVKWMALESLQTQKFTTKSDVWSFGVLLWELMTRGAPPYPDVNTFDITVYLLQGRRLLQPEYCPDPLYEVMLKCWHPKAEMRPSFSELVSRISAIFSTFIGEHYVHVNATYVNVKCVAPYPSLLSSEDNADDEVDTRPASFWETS
binder,measurement,setting,value
"Affy6-I3F CAR (other, CAR on transduced human T cells; I to F in HC CDR3; P2A remnant not included; also called MycT-Affy6-I3F CAR-SSTR2) GSEQKLISEEDLGSQVQLVQSGAEVKKPGASVKVSCKASGYIFTAYTMHWVRQAPGQGLEWMGWIKPNNGLANYAQKFQGRVTMTRDTSISTAYMELSRLRSDDTAVYYCARSEFTTEFDYWGQGTLVTVSSGGGGSGGGGSGGGGSDIVLTQSPDSLAVSLGERATINCKSSESVDSYANSFMHWYQQKPGQPPKLLIYRASTRESGVPDRFSGSGSRTDFTLTISSLQAEDVAVYYCQQSKEDPLTFGGGTKVEIKASTTTPAPRPPTPAPTIASQPLSLRPEACRPAAGGAVHTRGLDFACDFWVLVVVGGVLACYSLLVTVAFIIFWVRSKRSRLLHSDYMNMTPRRPGPTRKHYQPYAPPRDFAAYRSLRVKFSRSADAPAYQQGQNQLYNELNLGRREEYDVLDKRRGRDPEMGGKPRRKNPQEGLYNELQKDKMAEAYSEIGMKGERRRGKGHDGLYQGLSTATKDTYDALHMQALPPR",Fold Change,[1],937 fold
same,"percent cytotoxicity, H1993, 24 hrs",[2],64.7%
same,"percent cytotoxicity, H1993, 48 hrs",[2],91.3%
same,"percent cytotoxicity, H1993, 72 hrs",[2],97%
same,"cytotoxicity, Normal Human Liver Cells, 8 hrs",[3],15.3
same,"cytotoxicity, Normal Human Liver Cells, 16 hrs",[3],24.7
same,"cytotoxicity, Normal Human Liver Cells, 24 hrs",[3],31.8
same,"cytotoxicity, Normal Human Liver Cells, 32 hrs",[3],34.8
same,"cytotoxicity, Normal Human Liver Cells, 40 hrs",[3],34.8
same,"cytotoxicity, Normal Human Liver Cells, 48 hrs",[3],31.8
same,"cytotoxicity, Normal Human Lung Cells, 8 hrs",[4],17.1
same,"cytotoxicity, Normal Human Lung Cells, 16 hrs",[4],16.4
same,"cytotoxicity, Normal Human Lung Cells, 24 hrs",[4],19.1
same,"cytotoxicity, Normal Human Lung Cells, 32 hrs",[4],18
same,"cytotoxicity, Normal Human Lung Cells, 40 hrs",[4],29.4
same,"cytotoxicity, Normal Human Lung Cells, 48 hrs",[4],34.8
same,EC50,[5],20.5 µM
same,"cytotoxicity, Normal Human Colon Cells, 8 hrs",[6],13.2
same,"cytotoxicity, Normal Human Colon Cells, 16 hrs",[6],19.2
same,"cytotoxicity, Normal Human Colon Cells, 24 hrs",[6],22.4
same,"cytotoxicity, Normal Human Colon Cells, 32 hrs",[6],13.3
same,"cytotoxicity, Normal Human Colon Cells, 40 hrs",[6],1.6
same,"cytotoxicity, Normal Human Colon Cells, 48 hrs",[6],8.3
same,"cytotoxicity, Normal Human Kidney Cells, 8 hrs",[7],19.2
same,"cytotoxicity, Normal Human Kidney Cells, 16 hrs",[7],28
same,"cytotoxicity, Normal Human Kidney Cells, 24 hrs",[7],30.4
same,"cytotoxicity, Normal Human Kidney Cells, 32 hrs",[7],27.8
same,"cytotoxicity, Normal Human Kidney Cells, 40 hrs",[7],18.8
same,"cytotoxicity, Normal Human Kidney Cells, 48 hrs",[7],16.5
"Affy6-I3G CAR (other, CAR on transduced human T cells; I to G in HC CDR3; P2A remnant not included; also called MycT-Affy6-I3G CAR-SSTR2) GSEQKLISEEDLGSQVQLVQSGAEVKKPGASVKVSCKASGYIFTAYTMHWVRQAPGQGLEWMGWIKPNNGLANYAQKFQGRVTMTRDTSISTAYMELSRLRSDDTAVYYCARSEGTTEFDYWGQGTLVTVSSGGGGSGGGGSGGGGSDIVLTQSPDSLAVSLGERATINCKSSESVDSYANSFMHWYQQKPGQPPKLLIYRASTRESGVPDRFSGSGSRTDFTLTISSLQAEDVAVYYCQQSKEDPLTFGGGTKVEIKASTTTPAPRPPTPAPTIASQPLSLRPEACRPAAGGAVHTRGLDFACDFWVLVVVGGVLACYSLLVTVAFIIFWVRSKRSRLLHSDYMNMTPRRPGPTRKHYQPYAPPRDFAAYRSLRVKFSRSADAPAYQQGQNQLYNELNLGRREEYDVLDKRRGRDPEMGGKPRRKNPQEGLYNELQKDKMAEAYSEIGMKGERRRGKGHDGLYQGLSTATKDTYDALHMQALPPR",Fold Change,[1],6900 fold
same,"percent cytotoxicity, H1993, 24 hrs",[2],32.5%
same,"percent cytotoxicity, H1993, 48 hrs",[2],68.1%
same,"percent cytotoxicity, H1993, 72 hrs",[2],81.6%
same,"cytotoxicity, Normal Human Liver Cells, 8 hrs",[3],9.6
same,"cytotoxicity, Normal Human Liver Cells, 16 hrs",[3],13.7
same,"cytotoxicity, Normal Human Liver Cells, 24 hrs",[3],18.1
same,"cytotoxicity, Normal Human Liver Cells, 32 hrs",[3],22.3
same,"cytotoxicity, Normal Human Liver Cells, 40 hrs",[3],22.5
same,"cytotoxicity, Normal Human Liver Cells, 48 hrs",[3],20.5
same,"cytotoxicity, Normal Human Lung Cells, 8 hrs",[4],14.8
same,"cytotoxicity, Normal Human Lung Cells, 16 hrs",[4],17.3
same,"cytotoxicity, Normal Human Lung Cells, 24 hrs",[4],19.5
same,"cytotoxicity, Normal Human Lung Cells, 32 hrs",[4],18.4
same,"cytotoxicity, Normal Human Lung Cells, 40 hrs",[4],28
same,"cytotoxicity, Normal Human Lung Cells, 48 hrs",[4],33.1
same,EC50,[5],151 µM
same,"cytotoxicity, Normal Human Colon Cells, 8 hrs",[6],8.2
same,"cytotoxicity, Normal Human Colon Cells, 16 hrs",[6],14.4
same,"cytotoxicity, Normal Human Colon Cells, 24 hrs",[6],16.4
same,"cytotoxicity, Normal Human Colon Cells, 32 hrs",[6],11.4
same,"cytotoxicity, Normal Human Colon Cells, 40 hrs",[6],2
same,"cytotoxicity, Normal Human Colon Cells, 48 hrs",[6],10.7
same,"cytotoxicity, Normal Human Kidney Cells, 8 hrs",[7],10.1
same,"cytotoxicity, Normal Human Kidney Cells, 16 hrs",[7],17.9
same,"cytotoxicity, Normal Human Kidney Cells, 24 hrs",[7],17.2
same,"cytotoxicity, Normal Human Kidney Cells, 32 hrs",[7],15.8
same,"cytotoxicity, Normal Human Kidney Cells, 40 hrs",[7],10.2
same,"cytotoxicity, Normal Human Kidney Cells, 48 hrs",[7],14
"Affy7-Y6V CAR (other, CAR on transduced human T cells; Y to V in HC CDR3; P2A remnant not included; also called MycT-Affy7-Y6V CAR-SSTR2) GSEQKLISEEDLGSQVQLQQSGPELVRPGASVKMSCRASGYTFTSYWLHWVKQRPGQGLEWIGMIDPSNSDTRFNPNFKDKATLNVDRSSNTAYMLLSSLTSADSAVYYCATVGSYVSPLDYWGQGTSVTVSSGGGGSGGGGSGGGGSDIMMSQSPSSLTVSVGEKVTVSCKSSQSLLYTSSQKNYLAWYQQKPGQSPKLLIYWASTRESGVPDRFTGSGSGTDFTLTITSVKADDLAVYYCQQYYAYPWTFGGGTKLEIKRASTTTPAPRPPTPAPTIASQPLSLRPEACRPAAGGAVHTRGLDFACDFWVLVVVGGVLACYSLLVTVAFIIFWVRSKRSRLLHSDYMNMTPRRPGPTRKHYQPYAPPRDFAAYRSLRVKFSRSADAPAYQQGQNQLYNELNLGRREEYDVLDKRRGRDPEMGGKPRRKNPQEGLYNELQKDKMAEAYSEIGMKGERRRGKGHDGLYQGLSTATKDTYDALHMQALPPR","percent cytotoxicity, SNU638, 24 hrs",[8],68.1%
same,"percent cytotoxicity, SNU638, 48 hrs",[8],81.9%
same,"percent cytotoxicity, SNU638, 72 hrs",[8],93.2%
same,"cytotoxicity, Normal Human Lung Cells, 8 hrs",[9],18.2
same,"cytotoxicity, Normal Human Lung Cells, 16 hrs",[9],18
same,"cytotoxicity, Normal Human Lung Cells, 24 hrs",[9],15.4
same,"cytotoxicity, Normal Human Lung Cells, 32 hrs",[9],17.9
same,"cytotoxicity, Normal Human Lung Cells, 40 hrs",[9],16.7
same,"cytotoxicity, Normal Human Lung Cells, 48 hrs",[9],21.5
same,"cytotoxicity, Normal Human Colon Cells, 8 hrs",[10],9.4
same,"cytotoxicity, Normal Human Colon Cells, 16 hrs",[10],13.5
same,"cytotoxicity, Normal Human Colon Cells, 24 hrs",[10],14
same,"cytotoxicity, Normal Human Colon Cells, 32 hrs",[10],18.2
same,"cytotoxicity, Normal Human Colon Cells, 40 hrs",[10],20.3
same,"cytotoxicity, Normal Human Colon Cells, 48 hrs",[10],22.2
same,"percent cytotoxicity, H1993, 24 hrs",[11],40%
same,"percent cytotoxicity, H1993, 48 hrs",[11],84.2%
same,"percent cytotoxicity, H1993, 72 hrs",[11],93.8%
same,EC50,[5],5.3 µM
same,"percent cytotoxicity, Hs746T, 24 hrs",[12],65%
same,"percent cytotoxicity, Hs746T, 48 hrs",[12],94.8%
same,"percent cytotoxicity, Hs746T, 72 hrs",[12],98.2%
same,"cytotoxicity, Normal Human Kidney Cells, 8 hrs",[13],9.3
same,"cytotoxicity, Normal Human Kidney Cells, 16 hrs",[13],9.7
same,"cytotoxicity, Normal Human Kidney Cells, 24 hrs",[13],10.6
same,"cytotoxicity, Normal Human Kidney Cells, 32 hrs",[13],10.3
same,"cytotoxicity, Normal Human Kidney Cells, 40 hrs",[13],11
same,"cytotoxicity, Normal Human Kidney Cells, 48 hrs",[13],14.8
same,"cytotoxicity, Normal Human Liver Cells, 8 hrs",[14],6.5
same,"cytotoxicity, Normal Human Liver Cells, 16 hrs",[14],3.9
same,"cytotoxicity, Normal Human Liver Cells, 24 hrs",[14],5.5
same,"cytotoxicity, Normal Human Liver Cells, 32 hrs",[14],8.7
same,"cytotoxicity, Normal Human Liver Cells, 40 hrs",[14],10.7
same,"cytotoxicity, Normal Human Liver Cells, 48 hrs",[14],10.8
same,Fold Change,[15],53 fold
